This note sets out measurements from patent US20220281990A1 (MERRIMACK PHARMACEUTICALS, published 2022).

The target in experiment [1] is T1, recombinant human TNFR2-hFc protein (human, UniProt P20333 23-257).
T1 construct: also called hTNFR2-Fc; human TNFR2-Fc; not shown: human Fc
T1 sequence: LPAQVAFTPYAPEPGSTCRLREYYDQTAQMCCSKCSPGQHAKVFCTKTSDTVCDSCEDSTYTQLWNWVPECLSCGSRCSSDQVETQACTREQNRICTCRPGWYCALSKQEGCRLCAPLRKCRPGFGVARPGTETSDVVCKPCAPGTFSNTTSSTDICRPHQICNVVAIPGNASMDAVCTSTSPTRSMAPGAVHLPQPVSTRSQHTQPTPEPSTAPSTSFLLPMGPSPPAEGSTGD
In words: flow cytometry; hTNFR2-Fc binding to scFv displayed on yeast; one site binding fit (FIG. 6A). (In general: In flow cytometry, cells or beads pass a laser one at a time.)

Experiment [2] addresses T1, recombinant human TNFR2-hFc protein. In words: flow cytometry; hTNFR2-Fc binding to scFv displayed on yeast; one site binding fit (FIG. 4).
Experiment [3] shares this target. Description: flow cytometry; hTNFR2-Fc binding to scFv displayed on yeast (FIG. 4).
The target of experiment [4] is T2, Human TNFR2 expressed on cells (CHO-hTNFR2 cells) (human, UniProt P20333 23-461).
T2 construct: also called CHO cells overexpressing human TNFR2; human TNFR2 reporter cells (HEK293)
T2 sequence: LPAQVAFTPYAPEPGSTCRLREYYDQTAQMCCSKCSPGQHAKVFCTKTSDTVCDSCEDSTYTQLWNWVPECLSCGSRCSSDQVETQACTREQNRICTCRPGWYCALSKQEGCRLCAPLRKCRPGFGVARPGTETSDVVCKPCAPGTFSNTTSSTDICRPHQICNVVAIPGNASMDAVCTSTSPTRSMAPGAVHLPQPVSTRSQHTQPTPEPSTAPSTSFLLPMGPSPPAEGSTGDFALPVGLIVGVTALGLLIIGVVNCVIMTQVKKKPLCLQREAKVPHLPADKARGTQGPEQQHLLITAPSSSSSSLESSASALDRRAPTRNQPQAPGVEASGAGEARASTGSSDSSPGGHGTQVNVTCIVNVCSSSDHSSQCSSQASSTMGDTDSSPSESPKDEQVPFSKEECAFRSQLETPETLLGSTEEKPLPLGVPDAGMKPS
In words: flow cytometry; soluble scFv inhibiting TNF (1 nM) binding to CHO-hTNFR2 cells (FIGS. 5A-5B).

In experiment [5] the target is T2, Human TNFR2 expressed on cells …. Description: flow cytometry; soluble scFv inhibiting TNF (1 nM) binding to CHO-hTNFR2 cells (FIG. 7).
Experiment [6] concerns the target T3, recombinant human TNFR2-His (human, UniProt P20333 23-257).
T3 construct: also called hTNFR2-His; TNFR2-His protein; not shown: His tag
T3 sequence: T1 sequence
Description: flow cytometry; hTNFR2-His binding to scFv displayed on yeast (FIG. 8).

The target of experiment [7] is T1, recombinant human TNFR2-hFc protein. In words: flow cytometry; hTNFR2-Fc binding to scFv displayed on yeast; one site binding fit (FIG. 6B); FIG. 6B.
In experiment [8] the target is T2, Human TNFR2 expressed on cells …. Description: flow cytometry; IgG binding to CHO-hTNFR2 cells; four parameter fit (FIG. 10).
The target is the same in experiment [9]. In words: flow cytometry; IgG inhibiting TNF (1 nM) binding to CHO-hTNFR2 cells (FIG. 13A); FIG. 13A.
Experiment [10] shares this target. In words: flow cytometry; IgG inhibiting TNF (1 nM) binding to CHO-hTNFR2 cells (FIG. 12).
Experiment [11] deals with T3, recombinant human TNFR2-His. Description: biolayer interferometry (BLI); IgG1 and TNFR2-His protein (FIG. 11). (BLI is a label-free optical method that tracks binding on a fibre tip over time.)
Experiment [12] has as its target T2, Human TNFR2 expressed on cells …. Description: flow cytometry; IgG inhibiting TNF (1 nM) binding to CHO-hTNFR2 cells (FIG. 13B); FIG. 13B.

Changes are numbered by the printed parent chain.

B1: UC1.1 (S4-2 1B5-1D9) scFv (scFv)
scFv: QVQLLESGGGLVQPGGSLRLSCAASGFSFTSYAMTWVRQAPGKGLEWVSGISGGGAATFYADSVKGRFTISRDNSKNTLYLQMNSLRAEDTAVYYCARQSQYVGGFDYWGQGTLVTVSSASSGGSTSGSGKPGSGEGSSGSARQSVLTQPPSVSGAPGQRVTISCTGSSSNIGAGYGVHWYQQLPGTAPKLLIHGNTNRPSGVPDRFSGFKSGTSASLAITGLQAEDEADYYCQSYDSSLSGWVFGGGTKLTVLG
In the case of B1, the Kd in experiment [1] was determined as 2.87 nM; in experiment [2] it was 2.59 nM. Moreover, the “fold higher affinity (vs parental scFv)” value in [3] was around 5 fold. In experiment [4], the IC50 amounted to 10.7 nM.

B2: UC2.3 (S4-2 1D10-1G9) scFv (scFv)
scFv: QVQLLESGGGLVQPGGSLRLSCAASGFTFSTYAMSWIRQAPGKGLEWVSIISDGGDATVYADSVKGRFTISRDNSKNTLYLQMNSLRAEDTAVYYCARDGTSAAAFDSWGQGTLVTVSSASSGGSTSGSGKPGSGEGSSGSARDIQMTQSPSSLSASVGDRVTITCQASQDITNFLNWYQQKPGKAPKLLIYDASTLQTGVPSRFSGSGSGTDFTFTISSLQPEDIATYYCQQSDSYPITFGQGTKVEIKR
For B2, the IC50 in [5] was determined as 4.85 nM; in experiment [4] it was 6.59 nM. In addition, the EC50 in [6] is 33.9 nM. Besides, the Kd was 8.16 nM in experiment [7] and 8.88 nM in experiment [2]. Also, the “fold higher affinity (vs parental scFv)” value in experiment [3] was around 5 fold.

B3: UC2.3-IgG1 (antibody, V domains shown)
VH: QVQLLESGGGLVQPGGSLRLSCAASGFTFSTYAMSWIRQAPGKGLEWVSIISDGGDATVYADSVKGRFTISRDNSKNTLYLQMNSLRAEDTAVYYCARDGTSAAAFDSWGQGTLVTVSS
VL: DIQMTQSPSSLSASVGDRVTITCQASQDITNFLNWYQQKPGKAPKLLIYDASTLQTGVPSRFSGSGSGTDFTFTISSLQPEDIATYYCQQSDSYPITFGQGTKVEIKR
notes: Full-length human IgG1; also called anti-human TNFR2 IgG UC2.3
In experiment [8], B3 displayed an EC50 of 3.4 nM. In addition, the figures for the concentration for half-maximal inhibition (IC50) in [9] and in experiment [10] were 48 nM and 12.4 nM, respectively.

B4: UC2.3.8-IgG1 (antibody, V domains shown)
VH: B3 VH with S75N, K76R
VL: B3 VL with T53R, L54R, Q55R, T56A
notes: Full-length human IgG1; UC2.3.3 heavy chain combined with UC2.3.7 light chain; also called anti-human TNFR2 IgG UC2.3.8
On to B4, for which the dissociation constant Kd in experiment [11] was found to be 0.344 nM. In experiment [12], the IC50 is 0.088 nM.

B5: UC2.3.3-IgG1 (antibody, V domains shown)
VH: B3 VH with S75N, K76R
VL: B3 VL
notes: Full-length human IgG1; also called anti-human TNFR2 IgG UC2.3.3
On to B5, for which, in [11], the dissociation constant Kd turned out to be 0.573 nM. The figures for the 50% inhibitory concentration (IC50) in [9] and in experiment [12] were 0.89 nM and 0.68 nM, respectively.

B6: UC2.3.7-IgG1 (antibody, V domains shown)
VH: B3 VH
VL: B3 VL with T53R, L54R, Q55R, T56A
notes: Full-length human IgG1; also called anti-human TNFR2 IgG UC2.3.7
With B6, the dissociation constant Kd in experiment [11] was determined as 17.1 nM. In addition, the 50% inhibitory concentration (IC50) in experiment [9] came out at 8.69 nM.

B7: UC2-IgG1 (antibody, V domains shown)
VH: B3 VH with I37V, V59F
VL: B3 VL
notes: Full-length human IgG1; also called anti-human TNFR2 IgG UC2
Molecule B7 yielded a half-maximal effective concentration (EC50) in experiment [8] of 97.9 nM.

Usually Kd stands for the equilibrium constant for the complex coming apart. The IC50 is the midpoint of a concentration-inhibition curve. A high value points to a need for much substance. As usually defined, the EC50 is the concentration at which the effect is half-maximal.
